Key:
[1] = tested on: Gal4 reporter plasmid (pGal4-Luciferase); test: Gal4 reporter (luciferase) promoter repression in NIH3T3 cells; format: cell-based
Excerpt: Assuming that HDART takes part in more direct inhibition, it is expected that it has an autonomous repression function. To confirm the above expectation, in order that HDART can bind to DNA the full-length HDART cDNA was fused to Gal4 DNA binding region (GAL4DBD: a region having only a binding region with GAL4DNA and lacking a transcription control region) to analyze whether the transcription from the GAL4A promoter could be regulated within NIH3T3 cells.
More particularly, a Gal4 DBD-HDART plasmid capable of expressing a full-length HDART and Gal4 DBD fused protein was transfected in different amounts (0, 0.1, 0.3, and 0.5 μg) into NIH3T3 cells previously prepared to contain Gal4 reporter plasmid (pGal4-Luciferase). It should be noted that in order to make a uniform total amount of DNA used for the transfection, the amount of an expression vector was equalized to 0.5 μg by adding the appropriate amount of a vacant vector of Gal4 DBD in each transfection. 24 hours after the transfection, the expression activity (Luciferase activity) of reporter genes from the promoter was analyzed. The luciferase activity for each sample is indicated as a corrected value based on the luciferase activity obtained by introduction of a vacant vector alone as a reference (100%) (FIG. 8). It will be noted that the results of the analysis were indicated as an average of the results of three experiments, and a standard deviation is indicated as an error bar (FIG. 8A). Similar analyses were made using a different type of cell, U-205 cell, with Gal4 DBD-HDART (in an amount of 0 or 0.5 μg) (FIG. 8B).

HDAC4 = target: T1, HDAC4 (Homo sapiens, UniProt P56524); test: Immunoprecipitation of GFP-HDART with Flag-HDAC in 293 cells; format: binding; settings: co-transfected 293 cells; anti-FLAG immunoprecipitation
T1 construct: expressed in transfected cells; host or cells: 293 cells
T1 sequence (P56524 whole entry, species assumed): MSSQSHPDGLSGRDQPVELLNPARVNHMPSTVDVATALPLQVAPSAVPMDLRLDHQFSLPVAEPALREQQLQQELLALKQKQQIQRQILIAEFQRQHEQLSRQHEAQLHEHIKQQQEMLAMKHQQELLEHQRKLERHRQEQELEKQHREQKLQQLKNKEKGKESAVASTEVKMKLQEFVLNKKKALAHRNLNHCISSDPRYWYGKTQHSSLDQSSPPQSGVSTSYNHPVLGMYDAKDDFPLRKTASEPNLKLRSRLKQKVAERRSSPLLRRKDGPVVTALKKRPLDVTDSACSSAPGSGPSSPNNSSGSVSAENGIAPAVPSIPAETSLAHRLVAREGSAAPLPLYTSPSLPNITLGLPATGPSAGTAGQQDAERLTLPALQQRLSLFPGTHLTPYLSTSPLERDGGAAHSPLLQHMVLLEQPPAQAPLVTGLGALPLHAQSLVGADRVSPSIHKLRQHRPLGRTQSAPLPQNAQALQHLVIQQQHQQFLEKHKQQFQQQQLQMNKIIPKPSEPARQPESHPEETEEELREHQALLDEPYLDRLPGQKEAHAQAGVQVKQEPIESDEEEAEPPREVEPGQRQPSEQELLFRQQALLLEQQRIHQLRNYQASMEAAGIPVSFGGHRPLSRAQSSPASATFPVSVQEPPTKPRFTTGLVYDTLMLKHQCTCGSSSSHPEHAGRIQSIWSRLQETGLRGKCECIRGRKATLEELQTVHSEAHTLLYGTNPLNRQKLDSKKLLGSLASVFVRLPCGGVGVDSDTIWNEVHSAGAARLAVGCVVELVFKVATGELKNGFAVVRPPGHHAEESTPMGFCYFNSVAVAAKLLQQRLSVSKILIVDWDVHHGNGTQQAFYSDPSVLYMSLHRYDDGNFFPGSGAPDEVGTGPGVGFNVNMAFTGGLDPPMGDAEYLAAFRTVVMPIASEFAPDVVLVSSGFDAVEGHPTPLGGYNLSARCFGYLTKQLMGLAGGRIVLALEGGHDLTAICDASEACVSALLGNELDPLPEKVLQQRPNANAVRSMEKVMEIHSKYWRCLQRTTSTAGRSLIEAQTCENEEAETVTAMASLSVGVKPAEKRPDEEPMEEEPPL
Experimental: (§1) Flag-HDACs expression vectors capable of expressing different types of HDAC (1, 3, 4 or 6) and a GFP-HDART expression vector were, respectively, co-transfected with 293 cells in the same manner as in Example 2, and cell extracts were prepared 24 hours after the transfection. The respective cell extracts were incubated with an anti-Flag antibody, followed by immunoprecipitation. The resulting immunoprecipitate was isolated with SDS-PAGE and an isolated pattern was transferred to a membrane, followed by immunoblotting with use of an anti-Flag antibody or […]. For reference, in order to confirm the expression of GFP-HDART protein in the respective cells, individual samples prior to the immunoprecipitation were similarly developed with SDS-PAGE to conduct immunoblotting with use of an anti-GFP antibody. […] The kinds of HDAC's from the left side of the figure are as follows: lane 1, HDAC1; lane 3, HDAC3; lane 4, HDAC4; and lane 5, HDAC6. It will be noted that lane 2 is for the sample in which GFP-HDART alone was expressed.

HDAC6 = target: T2, HDAC6 (Homo sapiens, UniProt Q9UBN7); test: as above; format: binding; settings: co-transfected 293 cells; anti-FLAG immunoprecipitation
T2 construct: expressed in transfected cells; host or cells: 293 cells
T2 sequence (Q9UBN7 1-1215): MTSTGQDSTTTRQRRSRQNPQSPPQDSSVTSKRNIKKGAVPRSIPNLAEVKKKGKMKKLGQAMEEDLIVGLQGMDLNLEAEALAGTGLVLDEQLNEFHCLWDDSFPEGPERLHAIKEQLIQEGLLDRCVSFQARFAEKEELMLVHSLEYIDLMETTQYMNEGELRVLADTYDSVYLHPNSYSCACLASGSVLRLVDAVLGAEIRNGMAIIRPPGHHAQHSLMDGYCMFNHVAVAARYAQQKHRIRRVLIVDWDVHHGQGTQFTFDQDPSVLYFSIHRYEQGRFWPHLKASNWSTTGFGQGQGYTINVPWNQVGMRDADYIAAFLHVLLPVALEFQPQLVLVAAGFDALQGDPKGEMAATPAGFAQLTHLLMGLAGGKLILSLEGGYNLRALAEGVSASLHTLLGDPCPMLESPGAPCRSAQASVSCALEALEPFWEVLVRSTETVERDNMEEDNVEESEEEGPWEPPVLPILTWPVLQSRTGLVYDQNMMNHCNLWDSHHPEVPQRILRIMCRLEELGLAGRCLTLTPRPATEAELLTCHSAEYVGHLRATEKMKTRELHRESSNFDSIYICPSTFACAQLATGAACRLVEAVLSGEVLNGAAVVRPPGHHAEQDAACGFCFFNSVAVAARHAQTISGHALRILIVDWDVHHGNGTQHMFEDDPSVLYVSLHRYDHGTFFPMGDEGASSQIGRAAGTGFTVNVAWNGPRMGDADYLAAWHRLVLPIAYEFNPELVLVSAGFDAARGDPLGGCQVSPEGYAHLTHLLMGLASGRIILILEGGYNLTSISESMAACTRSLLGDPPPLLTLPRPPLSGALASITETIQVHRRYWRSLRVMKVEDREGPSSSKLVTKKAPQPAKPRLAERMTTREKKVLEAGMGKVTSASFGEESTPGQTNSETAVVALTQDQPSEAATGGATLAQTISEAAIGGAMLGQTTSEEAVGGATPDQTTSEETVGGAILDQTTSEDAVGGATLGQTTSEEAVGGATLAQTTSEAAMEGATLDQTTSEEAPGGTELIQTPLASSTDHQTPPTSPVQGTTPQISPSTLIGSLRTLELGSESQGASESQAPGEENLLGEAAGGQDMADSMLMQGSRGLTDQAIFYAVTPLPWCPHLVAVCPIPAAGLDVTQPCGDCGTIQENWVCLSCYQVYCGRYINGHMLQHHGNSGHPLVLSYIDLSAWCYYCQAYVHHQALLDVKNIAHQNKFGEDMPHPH
Experimental: as §1

- interaction with HDAC4 (HDAC4): exhibits interaction
- interaction with HDAC6 (HDAC6): exhibits interaction
B1: HDART: HDAC associated repressor TPR protein, 855 amino acids, SEQ ID NO: 2; transcription repressing factor, used as fusions or expressed from vector (protein, listed as Homo sapiens)
chain: MVVMARLSRPERPDLVFEEEDLPYEEEIMRNQFSVKCWLRYIEFKQGAPKPRLNQLYERALKLLPCSYKLWYRYLKARRAQVKHRCVTDPAYEDVNNCHERAFVFMHKMPRLWLDYCQFLMDQGRVTHTRRTFDRALRALPITQHSRIWPLYLRFLRSHPLPETAVRGYRRFLKLSPESAEEYIEYLKSSDRLDEAAQRLATVVNDERFVSKAGKSNYQLWHELCDLISQNPDKVQSLNVDAIIRGGLTRFTDQLGKLWCSLADYYIRSGHFEKARDVYEEAIRTVMTVRDFTQVFDSYAQFEESMIAAKMETASELGREEEDDVDLELRLARFEQLISRRPLLLNSVLLRQNPHHVHEWHKRVALHQGRPREIINTYTEAVQTVDPFKATGKPHTLWVAFAKFYEDNGQLDDARVILEKATKVNFKQVDDLASVWCQCGELELRHENYDEALRLLRKATALPARRAEYFDGSEPVQNRVYKSLKVWSMLADLEESLGTFQSTKAVYDRILDLRIATPQIVINYAMFLEEHKYFEESFKAYERGISLFKWPNVSDIWSTYLTKFIARYGGRKLERARDLFEQALDGCPPKYAKTLYLLYAQLEEEWGLARHAMAVYERATRAVEPAQQYDMFNIYIKRAAEIYGVTHTRGIYQKAIEVLSDEHAREMCLRFADMECKLGEIDRARAIYSFCSQICDPRTTGAFWQTWKDFEVRHGNEDTIKEMLRIRRSVQATYNTQVNFMASQMLKVSGSATGTVSDLAPGQSGMDDMKLLEQRAEQLAAEAERDQPLRAQSKILFVRSDASREELAELAQQVNPEEIQLGEDEDEDEMDLEPNEVRLEQQSVPAAVFGSLKED
- promoter activity ([1]; Gal4 DBD-HDART plasmid 0, 0.1, 0.3, 0.5 μg, NIH-3T3 cells): significantly inhibits
- lowering of the expression of luciferase ([1]; Gal4 DBD-HDART plasmid, highest concentration 0.5 μg, NIH-3T3 cells, 24 hours after transfection, vacant vector = 100%): 80%
- expression inhibition of luciferase ([1]; HDART not having a GAL4 DNA binding region): not observed

Reference: US8889408B2, “Factor taking part in transcription control” (Sony Corporation, priority 2002, dated 2014)
